Holding throughout (assay): cell-based or functional assay
The target in assay [1] is synthetic human Aβ16-22 (6BB12) (human).
In assay [2] the target is synthetic human Aβ25-35 (6BB6) (human).
The target of assay [3] is synthetic peptide 6BB10.
For assay [4], the target named is synthetic peptide 6BB11.
Assay [5] addresses synthetic peptide 6BB13.
Assay [6] has as its target synthetic peptide 6BB9.

From patent US20100015126A1, “Methods of Binding of Cross-Beta Structures By Chaperones” (priority 2006, published 2010) come the findings set out here.

Sequence of recombinant human BiP with C-terminal linker, FLAG-tag and His-tag (BiP-FLAG-His), P11021 19-654 (P11021 other isoform, or with tags, fused parts or gaps): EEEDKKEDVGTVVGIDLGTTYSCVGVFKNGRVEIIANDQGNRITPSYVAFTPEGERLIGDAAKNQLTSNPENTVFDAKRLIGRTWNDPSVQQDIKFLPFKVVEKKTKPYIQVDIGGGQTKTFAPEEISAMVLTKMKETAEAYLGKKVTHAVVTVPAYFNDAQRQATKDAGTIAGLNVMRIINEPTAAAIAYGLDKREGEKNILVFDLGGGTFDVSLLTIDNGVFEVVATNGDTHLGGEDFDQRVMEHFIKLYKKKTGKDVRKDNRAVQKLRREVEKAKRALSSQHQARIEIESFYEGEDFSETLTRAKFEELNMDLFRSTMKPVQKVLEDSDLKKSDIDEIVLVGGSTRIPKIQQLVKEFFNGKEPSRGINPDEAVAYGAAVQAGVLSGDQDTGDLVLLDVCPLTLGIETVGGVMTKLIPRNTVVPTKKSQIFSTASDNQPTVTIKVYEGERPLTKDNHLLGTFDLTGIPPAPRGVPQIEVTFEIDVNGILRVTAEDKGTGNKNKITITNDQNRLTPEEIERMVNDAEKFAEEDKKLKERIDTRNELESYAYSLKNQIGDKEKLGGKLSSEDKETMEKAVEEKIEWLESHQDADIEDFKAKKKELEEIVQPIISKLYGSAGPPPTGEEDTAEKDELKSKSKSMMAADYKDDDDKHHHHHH

For the substance “recombinant human BiP with C-terminal linker, FLAG-tag and His-tag (BiP-FLAG-His), P11021 19-654”, the Binding to DCs (MFI ratio), BiP, Aβ16-22/Aβ25-35 + BiP in assay [1] and in assay [2] was 261 MFI ratio throughout. The Binding to DCs (MFI ratio), BiP, mix of HSP70/BiP-binding peptides + BiP in assay [3], in assay [4], in assay [5] and in assay [6] was 1.8 MFI ratio each time.
